Measurements published in US20070218069A1 (published 2007).

What follows are binders tested against T1, K48-linked diubiquitin (human, UniProt P0CG48 1-76, isopeptide bond between Lys48 of one ubiquitin and the C-terminal Gly of the other) (assay: SPR Biacore, antigen immobilized).
T1 construct: Boston Biochem

Binder | Kd [nM] | koff [s⁻¹] | kon [M⁻¹ s⁻¹]
Fab apu2.01 (Fab, V domains shown) VH: EVQLVESGGGLVQPGGSLRLSCAASGFNISYSSMHWVRQAPGKGLEWVASIYSYYSYTSYADSVKGRFTISADTSKNTAYLQMNSLRAEDTAVYYCARSYSYSEALDYWGQGTLVTVSS VL: DIQMTQSPSSLSASVGDRVTITCRASQSVSSAVAWYQQKPGKAPKLLIYSASSLYSGVPSRFSGSRSGTDFTLTISSLQPEDFATYYCQQSSYSSLITFGQGTKVEIK | 23.5 | 0.0149 | 633000
Fab apu2.02 (Fab, V domains shown) VH: EVQLVESGGGLVQPGGSLRLSCAASGFNIFYGGIHWVRQAPGKGLEWVASIYSYYSYTSYADSVKGRFTISADTSKNTAYLQMNSLRAEDTAVYYCARSYSYYSAMDYWGQGTLVTVSS VL: DIQMTQSPSSLSASVGDRVTITCRASQSVSSAVAWYQQKPGKAPKLLIYSASSLYSGVPSRFSGSRSGTDFTLTISSLQPEDFATYYCQQSSYSSLITFGQGTKVEIK | 9.16 | 0.0101 | 1.11e+06
Fab apu2.03 (Fab, V domains shown) VH: EVQLVESGGGLVQPGGSLRLSCAASGFNISYSSMHWVRQAPGKGLEWVASIYSYYSYTSYADSVKGRFTISADTSKNTAYLQMNSLRAEDTAVYYCARSYSYSLAFDYWGQGTLVTVSS VL: DIQMTQSPSSLSASVGDRVTITCRASQSVSSAVAWYQQKPGKAPKLLIYSASSLYSGVPSRFSGSRSGTDFTLTISSLQPEDFATYYCQQSSYSSLITFGQGTKVEIK | 3.07 | 0.00266 | 867000
Fab apu2.04 (Fab, V domains shown) VH: EVQLVESGGGLVQPGGSLRLSCAASGFNISYSSMHWVRQAPGKGLEWVASIYSYYSYTSYADSVKGRFTISADTSKNTAYLQMNSLRAEDTAVYYCARSYSYSFGMDYWGQGTLVTVSS VL: DIQMTQSPSSLSASVGDRVTITCRASQSVSSAVAWYQQKPGKAPKLLIYSASSLYSGVPSRFSGSRSGTDFTLTISSLQPEDFATYYCQQSSYSSLITFGQGTKVEIK | 15.1 | 0.00939 | 622000
Fab apu2.05 (Fab, V domains shown) VH: EVQLVESGGGLVQPGGSLRLSCAASGFNISYSSMHWVRQAPGKGLEWVASIYSYYSYTSYADSVKGRFTISADTSKNTAYLQMNSLRAEDTAVYYCARSYSYRMAFDYWGQGTLVTVSS VL: DIQMTQSPSSLSASVGDRVTITCRASQSVSSAVAWYQQKPGKAPKLLIYSASSLYSGVPSRFSGSRSGTDFTLTISSLQPEDFATYYCQQSSYSSLITFGQGTKVEIK | 5.06 | 0.00609 | 1.2e+06
Fab apu2.06 (Fab, V domains shown) VH: EVQLVESGGGLVQPGGSLRLSCAASGFNISYSSMHWVRQAPGKGLEWVASIYSYYSYTSYADSVKGRFTISADTSKNTAYLQMNSLRAEDTAVYYCARGYSWFNAIDYWGQGTLVTVSS VL: DIQMTQSPSSLSASVGDRVTITCRASQSVSSAVAWYQQKPGKAPKLLIYSASSLYSGVPSRFSGSRSGTDFTLTISSLQPEDFATYYCQQSSYSSLITFGQGTKVEIK | 1.87 | 0.0024 | 1.28e+06
Fab apu2.07 (Fab, V domains shown) VH: EVQLVESGGGLVQPGGSLRLSCAASGFNISYSSMHWVRQAPGKGLEWVASIYSYYSYTSYADSVKGRFTISADTSKNTAYLQMNSLRAEDTAVYYCARSYSYHLGMDYWGQGTLVTVSS VL: DIQMTQSPSSLSASVGDRVTITCRASQSVSSAVAWYQQKPGKAPKLLIYSASSLYSGVPSRFSGSRSGTDFTLTISSLQPEDFATYYCQQSSYSSLITFGQGTKVEIK | 1.18 | 0.00318 | 2.7e+06
Fab apu2.08 (Fab, V domains shown) VH: EVQLVESGGGLVQPGGSLRLSCAASGFNISYSSMHWVRQAPGKGLEWVASIYSYYSYTSYADSVKGRFTISADTSKNTAYLQMNSLRAEDTAVYYCARSYSYSVGMDYWGQGTLVTVSS VL: DIQMTQSPSSLSASVGDRVTITCRASQSVSSAVAWYQQKPGKAPKLLIYSASSLYSGVPSRFSGSRSGTDFTLTISSLQPEDFATYYCQQSSYSSLITFGQGTKVEIK | 5.76 | 0.00721 | 1.25e+06
Fab apu2.09 (Fab, V domains shown) VH: EVQLVESGGGLVQPGGSLRLSCAASGFNISYSSMHWVRQAPGKGLEWVASIYSYYSYTSYADSVKGRFTISADTSKNTAYLQMNSLRAEDTAVYYCARSYSYHVAFDYWGQGTLVTVSS VL: DIQMTQSPSSLSASVGDRVTITCRASQSVSSAVAWYQQKPGKAPKLLIYSASSLYSGVPSRFSGSRSGTDFTLTISSLQPEDFATYYCQQSSYSSLITFGQGTKVEIK | 6.69 | 0.00478 | 715000
Fab apu2.10 (Fab, V domains shown) VH: EVQLVESGGGLVQPGGSLRLSCAASGFNISYSSMHWVRQAPGKGLEWVASIYSYYSYTSYADSVKGRFTISADTSKNTAYLQMNSLRAEDTAVYYCARSYSYFLAMDYWGQGTLVTVSS VL: DIQMTQSPSSLSASVGDRVTITCRASQSVSSAVAWYQQKPGKAPKLLIYSASSLYSGVPSRFSGSRSGTDFTLTISSLQPEDFATYYCQQSSYSSLITFGQGTKVEIK | 1.21 | 0.00399 | 3.28e+06

Target: T1, K48-linked diubiquitin
Assay: SPR Biacore, antigen immobilized
Remark: another data set of the same source

Binder | Kd [nM] | koff [s⁻¹] | kon [M⁻¹ s⁻¹]
Fab apu02 (Fab, V domains shown) VH: EVQLVESGGGLVQPGGSLRLSCAASGFNVSYSYMHWVRQAPGKGLEWVASISSYYSYTSYADSVKGRFTISADTSKNTAYLQMNSLRAEDTAVYYCARSYSYYSAIDYWGQGTLVTVSS VL: DIQMTQSPSSLSASVGDRVTITCRASQSVSSAVAWYQQKPGKAPKLLIYSASSLYSGVPSRFSGSRSGTDFTLTISSLQPEDFATYYCQQSSYSSLFTFGQGTKVEIK | 12.7 | 0.00696 | 546000
Fab apu07 (Fab, V domains shown) VH: EVQLVESGGGLVQPGGSLRLSCAASGFNLSYSYIHWVRQAPGKGLEWVASISSYYGSTSYADSVKGRFTISADTSKNTAYLQMNSLRAEDTAVYYCARESFYYSPAFDYWGQGTLVTVSS VL: DIQMTQSPSSLSASVGDRVTITCRASQSVSSAVAWYQQKPGKAPKLLIYSASSLYSGVPSRFSGSRSGTDFTLTISSLQPEDFATYYCQQSYYYSLFTFGQGTKVEIK | 9.49 | 0.00993 | 1.05e+06
Fab apu11 (Fab, V domains shown) VH: EVQLVESGGGLVQPGGSLRLSCAASGFNVSYYYIHWVRQAPGKGLEWVASISSYYGYTSYADSVKGRFTISADTSKNTAYLQMNSLRAEDTAVYYCARENYWWAIDYWGQGTLVTVSS VL: DIQMTQSPSSLSASVGDRVTITCRASQSVSSAVAWYQQKPGKAPKLLIYSASSLYSGVPSRFSGSRSGTDFTLTISSLQPEDFATYYCQQSYYYYPITFGQGTKVEIK | 19.6 | 0.0177 | 904000
Fab apu13 (Fab, V domains shown) VH: EVQLVESGGGLVQPGGSLRLSCAASGFNVSYYSIHWVRQAPGKGLEWVASIYPYYSYTSYADSVKGRFTISADTSKNTAYLQMNSLRAEDTAVYYCARSYSYSYGLDYWGQGTLVTVSS VL: DIQMTQSPSSLSASVGDRVTITCRASQSVSSAVAWYQQKPGKAPKLLIYSASSLYSGVPSRFSGSRSGTDFTLTISSLQPEDFATYYCQQYSSSYYPFTFGQGTKVEIK | 139 | 0.016 | 115000
